Target: histone H3 trimethylated at lysine 9 (H3K9me3) in bulk calf thymus histones (Sigma)

B1: GST-tagged KDM4C (BPS Bioscience) (protein)
chain: EVAEVESPLNPSCKIMTFRPSMEEFREFNKYLAYMESKGAHRAGLAKVIPPKEWKPRQCYDDIDNLLIPAPIQQMVTGQSGLFTQYNIQKKAMTVKEFRQLANSGKYCTPRYLDYEDLERKYWKNLTFVAPIYGADINGSIYDEGVDEWNIARLNTVLDVVEEECGISIEGVNTPYLYFGMWKTTFAWHTEDMDLYSINYLHFGEPKSWYAIPPEHGKRLERLAQGFFPSSSQGCDAFLRHKMTLISPSVLKKYGIPFDKITQEAGEFMITFPYGYHAGFNHGFNCAESTNFATVRWIDYGKVAKLCTCRKDMVKISMDIFVRKFQPDRYQLWKQGKDIYTIDHTKPTPASTPEVKAWLQRRRKVRKASRS
In the case of B1, the “in vitro histone demethylation assay; H3K9me3 assessed by Western blot” value is reported as “Addition of purified KDM4C to histone substrates resulted in demethylation of H3K9me3”.

— US10450596
